Test results taken from article PMC10786891, “Massively parallel profiling of RNA-targeting CRISPR-Cas13d”.
Positions count from the first letter of the chain named. Numbers in names are those of the source.

T1: EsCas13d, nuclease-dead (Eubacterium siraeum, UniProt B0MS50, R295A;H300A;R849A;H854A)
T1 sequence: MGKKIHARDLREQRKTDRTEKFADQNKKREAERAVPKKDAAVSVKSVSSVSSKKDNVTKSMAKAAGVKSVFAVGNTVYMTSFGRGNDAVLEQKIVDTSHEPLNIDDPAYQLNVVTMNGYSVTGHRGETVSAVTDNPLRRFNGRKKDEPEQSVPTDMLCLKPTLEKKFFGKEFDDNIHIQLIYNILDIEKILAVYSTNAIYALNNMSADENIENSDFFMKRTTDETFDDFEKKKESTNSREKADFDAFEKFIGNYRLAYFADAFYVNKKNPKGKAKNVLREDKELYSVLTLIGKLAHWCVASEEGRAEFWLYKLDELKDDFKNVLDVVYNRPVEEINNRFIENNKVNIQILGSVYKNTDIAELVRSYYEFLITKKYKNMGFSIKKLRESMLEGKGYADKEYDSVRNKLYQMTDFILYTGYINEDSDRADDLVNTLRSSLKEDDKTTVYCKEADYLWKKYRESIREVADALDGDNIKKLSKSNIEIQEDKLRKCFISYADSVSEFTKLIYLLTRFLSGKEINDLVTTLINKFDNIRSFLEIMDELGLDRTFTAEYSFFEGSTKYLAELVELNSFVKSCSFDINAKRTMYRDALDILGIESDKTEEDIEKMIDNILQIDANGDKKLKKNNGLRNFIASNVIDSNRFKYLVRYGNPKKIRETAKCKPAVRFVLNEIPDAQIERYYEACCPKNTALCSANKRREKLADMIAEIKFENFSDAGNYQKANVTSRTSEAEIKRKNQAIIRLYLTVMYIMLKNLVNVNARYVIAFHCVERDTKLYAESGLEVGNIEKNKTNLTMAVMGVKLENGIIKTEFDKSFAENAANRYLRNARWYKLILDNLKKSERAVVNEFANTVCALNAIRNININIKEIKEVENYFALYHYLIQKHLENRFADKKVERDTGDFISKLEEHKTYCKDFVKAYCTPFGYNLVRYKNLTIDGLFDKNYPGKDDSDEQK

B1: target 2 MT 5'PFS UGU 3'PFS AUA (mixed)
RNA 1: CACCCGUGCAAAAUUGCAGGGGUCUAAAACCUUCUCCAAAUUGUUUCAUCCU
RNA 2: GGGAAUGGAUCCACAUCUACGAAUUCUGUAGGAUGAAACAAUUUGGAGAAGAUAAGAUCGGAAGAGCACACGU
B2: target 2 MT 5'PFS GAA 3'PFS CUC (mixed)
RNA 1: B1 RNA 1
RNA 2: B1 RNA 2 with U27G, G28A, U29A, A52C, A54C
B3: target 2 MT 5'PFS UGG 3'PFS AGC (mixed)
RNA 1: B1 RNA 1
RNA 2: B1 RNA 2 with U29G, U53G, A54C
B4: target 2 MT 5'PFS GUC 3'PFS UAU (mixed)
RNA 1: B1 RNA 1
RNA 2: B1 RNA 2 with U27G, G28U, U29C, A52U, U53A, A54U
B5: target 2 MT 5'PFS UCA 3'PFS CAU (mixed)
RNA 1: B1 RNA 1
RNA 2: B1 RNA 2 with G28C, U29A, A52C, U53A, A54U
B6: target 2 MT 5'PFS GAA 3'PFS CUU (mixed)
RNA 1: B1 RNA 1
RNA 2: B1 RNA 2 with U27G, G28A, U29A, A52C, A54U
B7: target 2 MT 5'PFS GCA 3'PFS UCA (mixed)
RNA 1: B1 RNA 1
RNA 2: B1 RNA 2 with U27G, G28C, U29A, A52U, U53C
B8: target 2 MT 5'PFS UCA 3'PFS ACG (mixed)
RNA 1: B1 RNA 1
RNA 2: B1 RNA 2 with G28C, U29A, U53C, A54G
B9: target 2 MT 5'PFS CUG 3'PFS CUU (mixed)
RNA 1: B1 RNA 1
RNA 2: B1 RNA 2 with U27C, G28U, U29G, A52C, A54U
B10: target 2 MT 5'PFS UGU 3'PFS CUU (mixed)
RNA 1: B1 RNA 1
RNA 2: B1 RNA 2 with A52C, A54U
B11: target 2 MT 5'PFS GUC 3'PFS UAC (mixed)
RNA 1: B1 RNA 1
RNA 2: B1 RNA 2 with U27G, G28U, U29C, A52U, U53A, A54C
B12: target 2 MT 5'PFS UGU 3'PFS CUA (mixed)
RNA 1: B1 RNA 1
RNA 2: B1 RNA 2 with A52C
B13: target 2 MT 5'PFS GUC 3'PFS UAA (mixed)
RNA 1: B1 RNA 1
RNA 2: B1 RNA 2 with U27G, G28U, U29C, A52U, U53A
B14: target 2 MT 5'PFS ACC 3'PFS CAC (mixed)
RNA 1: B1 RNA 1
RNA 2: B1 RNA 2 with U27A, G28C, U29C, A52C, U53A, A54C
B15: target 2 MT 5'PFS UAU 3'PFS GAU (mixed)
RNA 1: B1 RNA 1
RNA 2: B1 RNA 2 with G28A, A52G, U53A, A54U
B16: target 2 MT 5'PFS UGG 3'PFS CAC (mixed)
RNA 1: B1 RNA 1
RNA 2: B1 RNA 2 with U29G, A52C, U53A, A54C
B17: target 2 MT 5'PFS ACA 3'PFS UCA (mixed)
RNA 1: B1 RNA 1
RNA 2: B1 RNA 2 with U27A, G28C, U29A, A52U, U53C
B18: target 2 MT 5'PFS GAA 3'PFS CUA (mixed)
RNA 1: B1 RNA 1
RNA 2: B1 RNA 2 with U27G, G28A, U29A, A52C
B19: target 2 MT 5'PFS ACC 3'PFS CAU (mixed)
RNA 1: B1 RNA 1
RNA 2: B1 RNA 2 with U27A, G28C, U29C, A52C, U53A, A54U
B20: target 2 MT 5'PFS GUC 3'PFS UAG (mixed)
RNA 1: B1 RNA 1
RNA 2: B1 RNA 2 with U27G, G28U, U29C, A52U, U53A, A54G
B21: target 2 MT 5'PFS CUG 3'PFS CUA (mixed)
RNA 1: B1 RNA 1
RNA 2: B1 RNA 2 with U27C, G28U, U29G, A52C
B22: target 2 MT 5'PFS UGU 3'PFS CUC (mixed)
RNA 1: B1 RNA 1
RNA 2: B1 RNA 2 with A52C, A54C
B23: target 2 MT 5'PFS CAU 3'PFS UUC (mixed)
RNA 1: B1 RNA 1
RNA 2: B1 RNA 2 with U27C, G28A, A52U, A54C
B24: target 2 MT 5'PFS GAA 3'PFS CUG (mixed)
RNA 1: B1 RNA 1
RNA 2: B1 RNA 2 with U27G, G28A, U29A, A52C, A54G
B25: target 2 MT 5'PFS CAU 3'PFS UUA (mixed)
RNA 1: B1 RNA 1
RNA 2: B1 RNA 2 with U27C, G28A, A52U
B26: target 2 MT 5'PFS CAU 3'PFS UUU (mixed)
RNA 1: B1 RNA 1
RNA 2: B1 RNA 2 with U27C, G28A, A52U, A54U
B27: target 2 MT 5'PFS UCU 3'PFS UUG (mixed)
RNA 1: B1 RNA 1
RNA 2: B1 RNA 2 with G28C, A52U, A54G
B28: target 2 MT 5'PFS UCA 3'PFS CAG (mixed)
RNA 1: B1 RNA 1
RNA 2: B1 RNA 2 with G28C, U29A, A52C, U53A, A54G
B29: target 2 MT 5'PFS CAU 3'PFS UUG (mixed)
RNA 1: B1 RNA 1
RNA 2: B1 RNA 2 with U27C, G28A, A52U, A54G
B30: target 2 MT 5'PFS CUG 3'PFS CUG (mixed)
RNA 1: B1 RNA 1
RNA 2: B1 RNA 2 with U27C, G28U, U29G, A52C, A54G
B31: target 2 MT 5'PFS CUG 3'PFS CUC (mixed)
RNA 1: B1 RNA 1
RNA 2: B1 RNA 2 with U27C, G28U, U29G, A52C, A54C
B32: target 2 MT 5'PFS GCG 3'PFS AUU (mixed)
RNA 1: B1 RNA 1
RNA 2: B1 RNA 2 with U27G, G28C, U29G, A54U
B33: target 2 MT 5'PFS UCA 3'PFS CAA (mixed)
RNA 1: B1 RNA 1
RNA 2: B1 RNA 2 with G28C, U29A, A52C, U53A
B34: target 2 MT 5'PFS UGG 3'PFS AGU (mixed)
RNA 1: B1 RNA 1
RNA 2: B1 RNA 2 with U29G, U53G, A54U
B35: target 1 A9G,G15U (mixed)
RNA 1: CACCCGUGCAAAAAUGCAGGGGUCUAAAACUGAGCGGAUAACCUCUCUAUGG
RNA 2: GGGAAUGGAUCCACAUCUACGAAUUCGUACCAUAGAUAGGUUGUCCGCUCACCGAGAUCGGAAGAGCACACGU
B36: target 1 insG 3' of 14,insC 3' of 3 (mixed)
RNA 1: B35 RNA 1
RNA 2: GGGAAUGGAUCCACAUCUACGAAUUCGUACCAUAGAGAGGGUUAUCCGCUCCACCGAGAUCGGAAGAGCACACGU
B37: target 1 A9G,C22A (mixed)
RNA 1: B35 RNA 1
RNA 2: B35 RNA 2 with C30A, U37G
B38: target 1 U10C,A14G (mixed)
RNA 1: B35 RNA 1
RNA 2: B35 RNA 2 with U37G, A38G, U42C, G43A

Target: T1, EsCas13d, nuclease-dead
Experiment: crRNA (strand 1, pre-loaded); Mg2+; 40 mM Tris-HCl pH 7.5, 150 mM NaCl, 6 mM MgCl2, 1 mM DTT, 0.1% Tween-20, 0.2 mg/ml BSA; 25 C; 10 min per concentration, then washed
Conditions: tags: His6-TwinStrep-SUMO cleaved; N-terminal SNAP kept (SNAP-Surface 488); label: 3' end held by stalled T7 RNA polymerase

Row | Binder | Kd [nM]
1 | B1 | 9.9 ± 1.6
2 | B2 | 16 ± 4
3 | B3 | 6 ± 0.9
4 | B4 | 18 ± 5
5 | B5 | 4.8 ± 1.1
6 | B6 | 15.1 ± 2.7
7 | B7 | 10.9 ± 2.1
8 | B8 | 3.6 ± 0.6
9 | B9 | 3.55 ± 0.34
10 | B10 | 14.6 ± 2
11 | B11 | 15.3 ± 2.4
12 | B12 | 12.9 ± 2
13 | B13 | 9.3 ± 1.4
14 | B14 | 7.4 ± 1.6
15 | B15 | ~44
16 | B16 | 15.3 ± 2.5
17 | B17 | 8.7 ± 3.2
18 | B18 | 6.9 ± 1.1
19 | B19 | 10 ± 4

Row | Binder | Kd [nM]
20 | B20 | 14 ± 2
21 | B21 | 3.2 ± 0.4
22 | B22 | ~50
23 | B23 | 9.1 ± 1.6
24 | B24 | 11.2 ± 1.4
25 | B25 | 5.2 ± 0.9
26 | B26 | 6.2 ± 0.7
27 | B27 | 16.9 ± 2.8
28 | B28 | 3.1 ± 0.4
29 | B29 | 4.5 ± 0.4
30 | B30 | 2.67 ± 0.23
31 | B31 | 5.7 ± 0.6
32 | B32 | 12.6 ± 2
33 | B33 | 5.3 ± 1.2
34 | B34 | 8 ± 0.8
35 | B35 | 17.3 ± 1.4
36 | B36 | 10.5 ± 0.9
37 | B37 | 21.9 ± 1.3
38 | B38 | 34.1 ± 2.8
